From patent US20190091326A1 come the findings set out here.

For test [1], the target named is 1209 V1/V2/V3/C3 scaffold grown in kifunensine. In words: ELISA, mAb titrated on scaffold, absorbance 492 nm; curve 509 (1209 kif). In general terms: ELISA stands for enzyme-linked immunosorbent assay.
For test [2], the target named is A244-rgp120 grown in kifunensine treated cells (HIV-1 isolate A244). In words: ELISA, mAb titrated on gp120, absorbance 492 nm; curve 496 (A244 gp120 kif).
The target of test [3] is A244-rgp120 grown in GnTI- cells (HIV-1 isolate A244). Description: ELISA, mAb titrated on gp120, absorbance 492 nm; curve 495 (A244 gp120 GNTI-).

As usually defined, the EC50 is the concentration giving half of the maximal effect. Low readings indicate an effect from little substance, high ones a need for much substance.

Turning to “PGT128 broadly neutralizing monoclonal antibody”, the EC50 in test [1] was 0.09 µg/mL; in test [2], under 0.01 µg/mL; in test [3] it was under 0.01 µg/mL.
